{
  "source": "patent US20260209384A1",
  "about": "(Stanford University, published 2026)",
  "binders": {"B1": {"name": "GPC2.27 (Fab from a human naive Fab phage library) (Fab, V domains shown)", "VH": "EVQLVESGPGLVKPSETLSLTCAVSGYSISSGYYWGWIRQPPGKGLEWIGSIYHSGSTYYNPSLKSRVTISVDTSKNQFSLKLSSVTAADTAVYYCASLPSRGGFDYWGQGTLVTVSS", "VL": "EIVMTQSPATLSASVGDRVTIACRASQTISRYLNWYQQKPGKAPKLLIYAASSLQSGVSSRFSGSGSGTEFTLTISSLQPEDFATYFCQQTYSPPITFGQGTRLEIKR", "notes": "Human Fab selected by phage display"}},
  "target": "T1, recombinant human GPC2 (R&D Systems) (human, UniProt Q8N158 24-554, limits assumed, labelled with Dylight488 or Dylight650 in the flow cytometry assays; unlabelled in the ELISA)",
  "T1 construct": "extracellular domain; also called hGPC2; human Glypican-2",
  "T1 sequence (looked up)": "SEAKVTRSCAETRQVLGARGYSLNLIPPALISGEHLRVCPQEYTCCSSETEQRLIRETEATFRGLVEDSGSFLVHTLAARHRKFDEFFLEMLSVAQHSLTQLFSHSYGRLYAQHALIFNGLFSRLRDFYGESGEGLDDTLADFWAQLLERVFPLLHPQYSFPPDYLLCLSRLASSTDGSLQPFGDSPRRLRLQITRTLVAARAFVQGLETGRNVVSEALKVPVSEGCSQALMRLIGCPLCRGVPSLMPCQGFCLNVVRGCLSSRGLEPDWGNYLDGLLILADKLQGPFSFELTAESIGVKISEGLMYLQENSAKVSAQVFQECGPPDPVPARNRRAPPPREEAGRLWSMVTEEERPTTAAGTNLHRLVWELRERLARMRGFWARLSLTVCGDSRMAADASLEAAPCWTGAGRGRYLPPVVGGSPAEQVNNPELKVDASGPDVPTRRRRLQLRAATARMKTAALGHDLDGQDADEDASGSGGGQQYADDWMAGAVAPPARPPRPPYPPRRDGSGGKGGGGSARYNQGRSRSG",
  "assay": "panning of a human naive Fab phage library against recombinant human GPC2",
  "excerpt": "A naïve human Fab phage display library constructed from peripheral blood B cells of 50 healthy donors, was used for selection of Fabs against purified recombinant GPC2 ectodomain (R&D Systems) as previously described. The isolated Fabs were expressed, purified and tested for binding to the GPC2 ectodomain through ELISA.",
  "data": [
    {"binder": "B1", "values": [
      {"measurement": "binding result", "value": "binds"}
    ]}
  ]
}
